Data on 3 molecules can be found in article PMC12041315, “UHRF1-mediated epigenetic reprogramming regulates glycolysis to promote progression of B-cell acute lymphoblastic leukemia” (Cell Death & Disease, 2025).

Test [1] has as its target T1, UHRF1 (Homo sapiens, UniProt Q96T88).
T1 sequence (Q96T88 1-793): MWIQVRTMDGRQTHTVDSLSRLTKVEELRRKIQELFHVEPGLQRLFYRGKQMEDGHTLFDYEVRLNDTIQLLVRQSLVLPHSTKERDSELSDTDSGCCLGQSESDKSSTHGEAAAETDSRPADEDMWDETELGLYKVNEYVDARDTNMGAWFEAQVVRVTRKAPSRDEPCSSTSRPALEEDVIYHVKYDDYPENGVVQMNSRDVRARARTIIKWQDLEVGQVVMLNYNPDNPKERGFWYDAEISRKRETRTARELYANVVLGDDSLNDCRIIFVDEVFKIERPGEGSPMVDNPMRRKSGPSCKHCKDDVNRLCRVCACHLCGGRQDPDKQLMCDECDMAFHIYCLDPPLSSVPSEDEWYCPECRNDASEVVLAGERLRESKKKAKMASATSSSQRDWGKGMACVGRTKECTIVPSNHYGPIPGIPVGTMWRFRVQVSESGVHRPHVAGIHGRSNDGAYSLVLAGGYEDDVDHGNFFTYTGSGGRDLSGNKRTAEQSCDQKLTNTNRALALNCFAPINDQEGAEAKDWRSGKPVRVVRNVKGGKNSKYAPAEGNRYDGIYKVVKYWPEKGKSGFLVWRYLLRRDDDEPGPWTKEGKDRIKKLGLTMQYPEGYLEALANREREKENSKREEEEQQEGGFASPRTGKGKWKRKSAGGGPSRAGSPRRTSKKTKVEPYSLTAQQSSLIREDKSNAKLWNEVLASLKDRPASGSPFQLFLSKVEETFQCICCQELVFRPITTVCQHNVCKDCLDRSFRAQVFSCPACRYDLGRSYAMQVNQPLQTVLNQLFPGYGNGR
Description: microscale thermophoresis. The class given is binding. The following applies: RED-NHS labelled protein, 1 µM; room temperature, 30 min.

In test [2] the target is T2, biotinylated SFRP5 protein (secreted frizzled-related protein 5) (UniProt Q5T4F7 30-317, biotin (biotinylated; site not stated)).
T2 chain: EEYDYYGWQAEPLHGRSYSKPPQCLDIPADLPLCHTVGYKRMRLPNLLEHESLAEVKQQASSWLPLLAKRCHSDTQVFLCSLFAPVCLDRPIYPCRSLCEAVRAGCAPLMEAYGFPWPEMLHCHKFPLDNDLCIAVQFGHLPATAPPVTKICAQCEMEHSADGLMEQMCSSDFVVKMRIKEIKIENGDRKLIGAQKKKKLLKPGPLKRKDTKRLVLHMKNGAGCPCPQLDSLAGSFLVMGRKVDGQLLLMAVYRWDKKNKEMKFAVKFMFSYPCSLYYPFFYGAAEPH
Description: BLI.

In test [3] the target is T3, WNT5A protein (UniProt P41221 62-380).
T3 construct: WNT5A protein
T3 sequence (looked up): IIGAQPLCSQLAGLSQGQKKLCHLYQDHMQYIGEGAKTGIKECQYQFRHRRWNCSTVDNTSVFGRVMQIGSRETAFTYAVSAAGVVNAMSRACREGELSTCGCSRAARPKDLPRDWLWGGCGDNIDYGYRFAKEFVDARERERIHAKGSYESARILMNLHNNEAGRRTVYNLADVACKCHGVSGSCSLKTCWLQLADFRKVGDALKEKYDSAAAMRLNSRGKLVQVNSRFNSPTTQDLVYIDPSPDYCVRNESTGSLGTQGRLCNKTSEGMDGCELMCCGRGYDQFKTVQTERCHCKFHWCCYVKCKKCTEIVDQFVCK
Description: BLI; biotinylated SFRP5 immobilised on the biosensor (ForteBio Octet RED 96e); WNT5A in Assay Buffer at 0.156 to 5 uM; global fitting model. The note with it: both partners purified. (In general: BLI is a label-free optical method that tracks binding on a fibre tip over time.)

Usually Kd stands for the constant that tells how readily two partners part at equilibrium. The low end stands for higher affinity, the high end for lower affinity. `Cc1nc(Nc2ncc(C(=O)Nc3cc(NC(=O)c4cccc(C(F)(F)F)c4)ccc3C)s2)cc(N2CCN(CCO)CC2)n1` [UM164] returned a Kd in test [1] of 10.2 µM.

B1: WNT5A protein (natural protein)
chain: T3 sequence (looked up)
B1: in test [2], binding was put at a Kd of 0.0203 µM.

B2: biotinylated SFRP5 protein (secreted frizzled-related protein 5) (natural protein, UniProt Q5T4F7 30-317, looked up)
chain: T2 chain
modifications: biotin (biotinylated; site not stated)
notes: secreted frizzled-related protein 5 (SFRP5)
In test [3], B2 registered a Kd of 20.3 µM.
